Experimental data taken from patent US20170275665.

Biological target: T1, Marinomonas mediterranea (MMB-1) Cas2, purified with N-terminal 6xHis tag
T1 chain: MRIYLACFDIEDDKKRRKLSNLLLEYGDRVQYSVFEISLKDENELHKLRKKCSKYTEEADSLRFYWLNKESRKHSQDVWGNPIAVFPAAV

B1: Marinomonas mediterranea (MMB-1) RT-Cas1 fusion protein, wild type, purified with N-terminal maltose-binding protein tag (protein)
chain: MLNSPLIDAVLPLRSVVITLRWLSPSKTGFLHHAGLHAWVRFLAGSPEQFSDFIVVEPIENGHISYQAGDGYRFRITVLNGGESLLDTLFSSLKRLPESAANHPDIAGAFSDNLVLEKIEDTFEHHQVTQIEDLSVFDINALMLETAVWSRQRRFKVAFNTPARLVKPKPEDGTELKGQNRYCRDKSDLNWQLFTHRLTDTFINLFQSRTGERLQRQNWPEAQLHAGLAVWLNNSYTNKKEKKVKDASGMLAQMQIEIDDDFPADLLALLVLGQYIGMGQNRAFGMGQYQLQDAYGYCSYPRPQAAKSLLEKSLSDASLHQACQTMYPRQANFDSSDTDEEHHDAIDELLTKLYVSRERIFKREFTPSQLHSVEIEKPEGGTRLLSVPNWHDRTLQKAVTECLGNTLEHIWMKHSYGYRKGHSRLQARDQINQYIQQGYEWVLESDIESFFDSVNWLNLEQRLKLLLPNEPLVPLLMQWVSAAKQTEDEQTLARHNGLPQGAPISPILANLLLDDLDQDMIAKGHQIVRYADDFVLLFKSKAAAESALDDIITALKEHHLAINLEKTRIVEASQGFRYLGYLFVDGYAIETKREYRKEHAQLDKQLNASSLENEPSLQQEPAVQNEQSTLIGEREKLGTLLIIAGDIAMLSSEKQRLIVEQYDELHTYPWATLSSVLLVGPHHITTPALKSAMFHNVPVHFASQYGRYQGVSAGAAPSVFGADFWLLQAQYLQQETNALNISQVLIQARIEGIRAVISRREKDAPELNKIQRLDEKRLRAETLDQLRGYEGQASKQLWAFFQRILEEDWGFTGRNRRPPKDPINALLSLGYTYLYSLVDSVNRTVGLYPWQGALHQRHGYHHTLASDLMEPWRYLVEHVVLTLINRHQIHKDDFVIKENGCEMSSGARKTLLKELLVQLTKVPKGGNSLLTEMSNQSYRLALSCKMQQRFIAWSPKR
  cleavage of the CRISPR DNA substrate with ligation of a dsDNA oligonucleotide (in vitro cleavage-ligation assay, gel): products derived from cleavage of the CRISPR substrate were readily detected in the presence of RT-Cas1 and Cas2 together but not in the presence of either protein alone
